# Assay results reported in US8192734B2, “Compositions and methods for bone strengthening” (Cornell University, priority 2007, dated 2012).
# Where two headings read alike, the source gives them in different places. Marks after values point to notes of the source that are not given here.
# B1: Phytase: Escherichia coli AppA2 phytase (OptiPhos, JBS United, Inc.), added to diets at feed mixing; AppA2 is SEQ ID NO: 2 (protein, listed as Escherichia coli)
# chain: MKAILIPFLSLLIPLTPQSAFAQSEPELKLESVVIVSRHGVRAPTKATQLMQDVTPDAWPTWPVKLGWLTPRGGELIAYLGHYQRQRLVADGLLAKKGCPQPGQVAIIADVDERTRKTGEAFAAGLAPDCAITVHTQADTSSPDPLFNPLKTGVCQLDNANVTDAILSRAGGSIADFTGHRQTAFRELERVLNFSQLNLCLNREKQDESCSLTQALPSELKVSADNVSLTGAVSLASMLTEIFLLQQAQGMPEPGWGRITDSHQWNTLLSLHNAQFYLLQRTPEVARSRATPLLDLIMAALTPHPPQKQAYGVTLPTSVLFIAGHDTNLANLGGALELNWTLPGQPDNTPPGGELVFERWRRLSDNSQWIQVSLVFQTLQQMRDKTPLSLNTPPGEVKLTLAGCEERNAQGMCSLAGFTQIVNEARIPACSL
# Key:
# [1] = test system: pigs fed P-adequate corn-soybean meal basal diet; test: Expt 1: metatarsal breaking strength, three-point bending test; format: in vivo, pig; settings: BD + phytase 2,000 U/kg, 6 wk
# Method: Based on results of the preliminary trials, Experiment 1 was conducted with 24 gilts (6-wk old, 8.6±0.1 kg body weight) to test the possible benefit of phytase to metatarsal breaking load of pigs fed the corn-soybean meal basal diet (BD, Table 1). The BD contained 0.33% available P and adequate concentrations of all other required nutrients (24). The selected pigs were divided into two groups (n=12), and were fed BD or BD+phytase at 2,000 U/kg for 6 wk.
# Third and 4th metatarsals in both experiments and femur (right leg) in Experiment 2 were prepared by manually removing surrounding skin, muscle and other tissues. Bones were stored in closed plastic bags at 4° C. until strength analysis. Maximal breaking load was measured using an Instron 4500 Machine (Canton, Mass.) at room temperature (23° C.) by subjecting each bone to a three-point bending test^(28). During mechanical tests, force was applied to the center of the bone held by supports 2.0 cm apart for metatarsals and 3.3 cm apart for femur. The crosshead speed was set at 50 mm/min and the sample rate was 10 points/s. Final strength was determined from load-displacement curves indicating the maximum loads. The metatarsal breaking strength was expressed as the mean strength of four bones from both left and right feet of pigs in Experiment 1, and as the mean of the two bones from the right foot of pigs in Experiment 2. […]
# [2] = test system: pigs fed P-adequate corn-soybean meal basal diet; test: Expt 2: metatarsal and femur breaking strength, three-point bending test; format: in vivo, pig; settings: main effect, phytase 2,000 U/kg or Sr 50 mg/kg
# Method: Third and 4th metatarsals in both experiments and femur (right leg) in Experiment 2 were prepared by manually removing surrounding skin, muscle and other tissues. Bones were stored in closed plastic bags at 4° C. until strength analysis. Maximal breaking load was measured using an Instron 4500 Machine (Canton, Mass.) at room temperature (23° C.) by subjecting each bone to a three-point bending test^(28). During mechanical tests, force was applied to the center of the bone held by supports 2.0 cm apart for metatarsals and 3.3 cm apart for femur. The crosshead speed was set at 50 mm/min and the sample rate was 10 points/s. Final strength was determined from load-displacement curves indicating the maximum loads. The metatarsal breaking strength was expressed as the mean strength of four bones from both left and right feet of pigs in Experiment 1, and as the mean of the two bones from the right foot of pigs in Experiment 2.
# [3] = test system: weanling pigs fed high P diet; test: Examples 4-8: cortical and cancellous bone ash and mineral profile; format: in vivo, pig; settings: 8 wk
# Method: As in Examples 1-3, the animal protocol was approved by Cornell Animal Care and Use Committee. An 8-week feeding trial was conducted at Cornell University Swine Research Farm. Thirty weanling pigs (Yorkshire×Hampshire×Landrace, body weight=8.6±0.5 kg) were allocated into three groups (n=10). […] were fed a corn-soy basal diet (BD)+0.25% inorganic phosphorus (iP, dicalcium phosphate). Group 2 were fed BD+0.35% iP. Group 3 were fed BD+0.35% iP+3,400 units of phytase/kg (Escherichia coli appA2, OptiPhos, JBS United, Inc., Sheridan, Ind.). The BD (Table 7) contained adequate levels of all nutrients except for P^(63), and 0.25% iP is the supplementation level recommended by NRC^(24) to meet the P needs of this age of pigs. […] Pigs were housed in an environmentally-controlled barn (20-25° C.; 12-light: 12-dark cycle), and given free access to feed and water.
# After the above mechanical tests, midshaft sections of both femur and metacarpus were cut and washed with de-ionized water. The cortical thickness of both bones was measured by slide caliper in the midshaft. Cortical and cancellous bones were separated for total ash and mineral analysis. A 3-cm long and 3-mm thick midshaft of femur and 1-cm long and 1.5-mm thick midshaft of metacarpus were used for cortical ash analysis. For cancellous bone, sponge-like bone from 3-cm below the growth plate of femur and 1.5-cm below the growth plate of metacarpus were collected. For ash analysis, bones were oven-dried at 110° C. for 24 h, and incinerated in a muffle furnace at 550° C. for 96 h. Concentrations of individual elements in the ash were measured using inductively coupled argon plasma spectrophotometer (ICAP 61E Trace Analyzer, Thermo Jarell Ash corporation, Franklin, Mass.)^(63), and were expressed on ash basis.
# [4] = Expt 2, plasma, phytase 2000 U/kg and/or Sr 50 mg/kg
# Method: Pigs were penned in an environmentally controlled barn (20-25° C.; 12 h light: 12 h dark cycle), and were allowed free access to feed and water.
# Blood samples of individual pigs were collected at initial (wk 0) and then weekly from the anterior vena cava into heparinized tubes after an overnight fast (8 h). The collected whole blood samples were chilled on ice and centrifuged at 3,000×g (GS-6KR centrifuge, Beckman Instruments Inc.) for 10 min at 4° C. to prepare plasma for assays of inorganic P concentrations and alkaline phosphatase activity.
# The hydrolysis of p-nitrophenol phosphate to p-nitrophenol was used to measure plasma alkaline phosphatase activity^(27). The enzyme unit was defined as 1 μmol of p-nitrophenol released per minute at 30° C.
# [5] = 0.35% iP + Sr 50 mg/kg + phytase 3,400 U/kg, P<0.01
molecule,measurement,setting,value
B1,breaking strength of metatarsals,[1],112.0 ± 3.9 kg
same,greater breaking strength of metatarsals vs BD,[1]; P<0.02,12%
same,improvement in breaking strength of femur,[2],20%
same,improvement in breaking strength of metatarsals,[2],16%
same,"decrease of P concentration in cancellous bones, femur and metacarpus","[3]; 0.35% iP + Sr 50 mg/kg + phytase 3,400 U/kg",22 to 31%
same,"elevation of Sr concentration in cancellous bone, metacarpus","[3]; 0.35% iP + Sr 50 mg/kg + phytase 3,400 U/kg, P<0.002",115 fold
same,enhancement of cancellous bone ash of femur,[3]; [5],12%
same,enhancement of cancellous bone ash of metacarpus,[3]; [5],5%
same,"increase of total ash concentration of cortical bone, metacarpals",[3]; [5],3%
same,"increase in Fe concentration of cancellous bone, femur","[3]; 0.35% iP + Sr 50 mg/kg + phytase 3,400 U/kg, P<0.05",33%
same,Femur cancellous bone Ca,"[3]; 0.35% iP + phytase 3400 U, n=5",311.0^b g/Kg ash
same,Femur cancellous bone Cr,"[3]; 0.35% iP + phytase 3400 U, n=5",10.0 mg/kg ash
same,Femur cancellous bone Fe,"[3]; 0.35% iP + phytase 3400 U, n=5",75.6^a mg/kg ash
same,Femur cancellous bone Mg,"[3]; 0.35% iP + phytase 3400 U, n=5",6.0^b g/Kg ash
same,Femur cancellous bone Na,"[3]; 0.35% iP + phytase 3400 U, n=5",8.3^b g/Kg ash
same,Femur cancellous bone P,"[3]; 0.35% iP + phytase 3400 U, n=5",155.0^b g/Kg ash
same,Femur cancellous bone S,"[3]; 0.35% iP + phytase 3400 U, n=5",1833.2^b mg/kg ash
same,Femur cancellous bone Sr,"[3]; 0.35% iP + phytase 3400 U, n=5",93680.7^a mg/kg ash
same,Femur cancellous bone Zn,"[3]; 0.35% iP + phytase 3400 U, n=5",395.7^a mg/kg ash
same,Femur compact bone Ca,"[3]; 0.35% iP + phytase 3400 U, n=5",403.0 g/Kg ash
same,Femur compact bone Cr,"[3]; 0.35% iP + phytase 3400 U, n=5",12.6 mg/kg ash
same,Femur compact bone Fe,"[3]; 0.35% iP + phytase 3400 U, n=5",25.1 mg/kg ash
same,Femur compact bone Mg,"[3]; 0.35% iP + phytase 3400 U, n=5",7.6 g/Kg ash
same,Femur compact bone Na,"[3]; 0.35% iP + phytase 3400 U, n=5",9.4 g/Kg ash
same,Femur compact bone P,"[3]; 0.35% iP + phytase 3400 U, n=5",199.0 g/Kg ash
same,Femur compact bone S,"[3]; 0.35% iP + phytase 3400 U, n=5",649.9^b mg/kg ash
same,Femur compact bone Sr,"[3]; 0.35% iP + phytase 3400 U, n=5",568.8^b mg/kg ash
same,Femur compact bone Zn,"[3]; 0.35% iP + phytase 3400 U, n=5",278.8 mg/kg ash
same,Metacarpus cancellous bone Ca,"[3]; 0.35% iP + phytase 3400 U, n=5",329.0^b g/kg ash
same,Metacarpus cancellous bone Cr,"[3]; 0.35% iP + phytase 3400 U, n=5",10.7 mg/kg ash
same,Metacarpus cancellous bone Fe,"[3]; 0.35% iP + phytase 3400 U, n=5",66.4^a mg/kg ash
same,Metacarpus cancellous bone Mg,"[3]; 0.35% iP + phytase 3400 U, n=5",6.0 g/kg ash
same,Metacarpus cancellous bone Na,"[3]; 0.35% iP + phytase 3400 U, n=5",7.6^b g/kg ash
same,Metacarpus cancellous bone P,"[3]; 0.35% iP + phytase 3400 U, n=5",161.0^b g/kg ash
same,Metacarpus cancellous bone S,"[3]; 0.35% iP + phytase 3400 U, n=5",1334.5^b mg/kg ash
same,Metacarpus cancellous bone Sr,"[3]; 0.35% iP + phytase 3400 U, n=5",86221.0^a mg/kg ash
same,Metacarpus cancellous bone Zn,"[3]; 0.35% iP + phytase 3400 U, n=5",334.3 mg/kg ash
same,Metacarpus compact bone Ca,"[3]; 0.35% iP + phytase 3400 U, n=5",398.0 g/Kg ash
same,Metacarpus compact bone Cr,"[3]; 0.35% iP + phytase 3400 U, n=5",13.3 mg/kg ash
same,Metacarpus compact bone Fe,"[3]; 0.35% iP + phytase 3400 U, n=5",24.7 mg/kg ash
same,Metacarpus compact bone Mg,"[3]; 0.35% iP + phytase 3400 U, n=5",7.2 g/Kg ash
same,Metacarpus compact bone Na,"[3]; 0.35% iP + phytase 3400 U, n=5",8.6 g/Kg ash
same,Metacarpus compact bone P,"[3]; 0.35% iP + phytase 3400 U, n=5",195.0 g/Kg ash
same,Metacarpus compact bone S,"[3]; 0.35% iP + phytase 3400 U, n=5",763.8^b mg/kg ash
same,Metacarpus compact bone Sr,"[3]; 0.35% iP + phytase 3400 U, n=5",541.4^b mg/kg ash
same,Metacarpus compact bone Zn,"[3]; 0.35% iP + phytase 3400 U, n=5",307.7 mg/kg ash
same,increases in Sr concentration in cancellous bones of femur and metacarpus vs 0.35% iP,"[3]; phytase 3,400 U/kg into the 0.35% iP diet",> 100 fold
same,Alkaline phosphatase activity,[4]; week 0 (initial),202.1 U/L
same,Alkaline phosphatase activity,[4]; week 5 (final),149.9 U/L
